In patent publication US20040235157A1 one finds luciferase gene reporter assay using PIL5 cells (lowest detectable IFN activity) data, which are given here for 2 substances.

The target in the test is Type I interferon receptor (endogenous, on human promonocytic PIL5 cells derived from U937) (human) (UniProt P17181). The experiment in a line: cell-based or functional assay.
Chain of UniProt P17181 (P17181 28-557, chain 1 of 2): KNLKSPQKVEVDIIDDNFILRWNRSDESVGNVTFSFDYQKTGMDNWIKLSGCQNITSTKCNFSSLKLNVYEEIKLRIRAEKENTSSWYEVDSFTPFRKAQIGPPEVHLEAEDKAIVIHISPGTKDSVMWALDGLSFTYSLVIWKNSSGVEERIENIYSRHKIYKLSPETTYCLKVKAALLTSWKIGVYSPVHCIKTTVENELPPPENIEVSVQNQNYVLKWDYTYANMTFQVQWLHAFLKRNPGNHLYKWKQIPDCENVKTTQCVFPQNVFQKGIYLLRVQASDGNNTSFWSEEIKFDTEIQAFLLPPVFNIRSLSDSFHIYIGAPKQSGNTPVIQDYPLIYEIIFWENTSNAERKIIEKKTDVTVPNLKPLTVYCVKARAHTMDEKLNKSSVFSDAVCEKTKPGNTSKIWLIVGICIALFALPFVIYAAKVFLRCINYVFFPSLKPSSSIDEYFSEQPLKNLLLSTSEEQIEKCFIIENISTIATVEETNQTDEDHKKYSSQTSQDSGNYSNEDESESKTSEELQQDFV
Chain of UniProt P17181 (P48551 27-515, chain 2 of 2, further chain): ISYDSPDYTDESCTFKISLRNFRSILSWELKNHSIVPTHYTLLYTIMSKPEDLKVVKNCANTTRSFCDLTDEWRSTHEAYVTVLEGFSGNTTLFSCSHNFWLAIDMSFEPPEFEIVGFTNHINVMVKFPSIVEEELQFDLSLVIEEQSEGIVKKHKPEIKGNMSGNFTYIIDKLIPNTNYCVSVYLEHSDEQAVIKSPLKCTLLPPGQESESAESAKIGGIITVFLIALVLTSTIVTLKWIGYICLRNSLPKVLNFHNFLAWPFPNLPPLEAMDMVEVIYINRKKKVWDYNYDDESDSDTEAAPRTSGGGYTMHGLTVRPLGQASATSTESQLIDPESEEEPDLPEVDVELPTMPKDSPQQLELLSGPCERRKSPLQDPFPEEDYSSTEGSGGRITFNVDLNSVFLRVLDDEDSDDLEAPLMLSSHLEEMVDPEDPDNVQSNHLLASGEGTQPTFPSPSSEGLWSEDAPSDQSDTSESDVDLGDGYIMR

Turning to “IFNβ (from UniProt P01574 22-187) (ligand)”, the luciferase gene reporter assay using PIL5 cells (lowest detectable IFN activity) is less than 1 IU/ml. Under “human IFN α (standard preparation of human interferon alpha) (ligand)” stands less than 1 IU/ml.
